From article PMC3817118

How the values were obtained:
[1] = target: central region of the human metapneumovirus phosphoprotein (HMPV P residues 158-237) (human metapneumovirus, strain NL1-00); test: SAXS; Pced in solution at 3-6 mg/ml, 20 C; 20 mM Tris pH 7.5 with 150 mM NaCl, 800 mM NaCl, or NaCl plus 1 M NDSB-201; molecular weight from the volume of correlation Vc compared with the mass of a tetramer
[2] = target: core region of Pced (P_(core)), degradation fragment of HMPV P 158-237 found in the crystal (human metapneumovirus, strain NL1-00); test: crystal structure; vapor diffusion, 25 % PEG 3350, 100 mM HEPES pH 7.5, 20 C, crystal after ~142 days; 3.1 A, molecular replacement with the ab initio P_(core) model; 2 tetramers in the asymmetric unit

| Substance | stoichiometry N [1] | stoichiometry N [2] |
| --- | --- | --- |
| central region of the human metapneumovirus phosphoprotein (HMPV P residues 158-237) (domain or fragment) | 4 | – |
| core region of Pced (P_(core)), degradation fragment of HMPV P 158-237 found in the crystal (domain or fragment) | – | 4 |
